The source of these data is publication PMC3089910 (Analytical biochemistry, 2010).

The target in data set [1] is human lactoferrin (hLF), iron-free, in the presence of Zn2+ (human). The data set is described as follows: AUC.
The data set “AUC” deals with the molecule itself. The data set is described as follows: AUC.

B1: rTp34, Tp34 from Treponema pallidum, in the presence of Zn2+ (natural protein)
chain: CGGGGEHQHGEEMMAAVPAPDAEGAAGFDEFPIGEDRDVGPLHVGGVYFQPVEMHPAPGAQPSKEEADCHIEADIHANEAGKDLGYGVGDFVPYLRVVAFLQKHGSEKVQKVMFAPMNAGDGPHYGANVKFEEGLGTYKVRFEIAAPSHDEYSLHIDEQTGVSGRFWSEPLVAEWDDFEWKGPQW
B1: the stoichiometry N (in data set [1]; in the data set “AUC”) was 2 throughout.
